In US20240401082A1 (Sanofi, published 2024):
Blank lines part the entries; values can stand above or below the binder they belong to.

Key:
[1] = target: T1, human complement factor Bb (human, UniProt P00751 260-764); assay: cell-based or functional assay
[2] = target: T1, human complement factor Bb; assay: cell-based or functional assay; remark: listed apart in the source
[3] = target: T1, human complement factor Bb; assay: cell-based or functional assay; remark: listed apart in the source
[4] = target: T1, human complement factor Bb; assay: BLI (Octet), biotinylated target on streptavidin sensor
[5] = target: T1, human complement factor Bb; assay: as above; remark: listed apart in the source
[6] = target: T1, human complement factor Bb; assay: SPR, purified protein
[7] = target: T1, human complement factor Bb; assay: cell-based or functional assay; remark: listed apart in the source
[8] = target: T1, human complement factor Bb; assay: cell-based or functional assay; remark: listed apart in the source
[9] = target: T1, human complement factor Bb; assay: cell-based or functional assay; remark: listed apart in the source
[10] = target: T1, human complement factor Bb; assay: BLI (Octet), biotinylated target on streptavidin sensor; mixture of the two scFabs from construct #9
Description: (§1) Bio-layer interferometry (BLI) was used to assess the recombinant proteins' target engagement to and binding affinity for complement C1s enzyme (active C1s or “C1s” herein) and factor Bb (Bb) (Complement Technology, Tyler, TX, USA). C1s and Bb were biotinylated with EZ-Link™ Sulfo-NHS-LC-LC-Biotin (Thermo Fisher, Waltham, MA, USA) according to manufacturer instructions. Biotinylated C1s or Bb was loaded on Octet® Streptavidin (SA) Biosensors (Sartorius, Göttingen, Germany), followed by a concentration range of purified proteins. To assess dual target engagement, biotinylated active C1s or Bb was loaded onto sensors, followed by purified proteins (“first association phase”), followed by the non-captured complement target (Bb or active C1s, non-biotinylated; “second association phase”). The assays were performed at 30° C. using PBS with 0.1% Tween 20 as a diluent (FIG. 3).

[11] = target: T1, human complement factor Bb; assay: BLI (Octet), biotinylated target on streptavidin sensor; partially purified mixture of the two scFabs from construct #9; mixture of the two scFabs from construct #9
Description: as §1
(§2) The third expression construct, construct #9 (FIGS. 2B and 21), is composed of a bidirectional minCBA promoter driving expression of separate transcripts encoding human codon-optimized αBb scFab or αC1s scFab [αC1s scFab+αBb scFab], each followed by a bGH poly (A) signal.

[12] = target: T1, human complement factor Bb; assay: BLI (Octet), biotinylated target on streptavidin sensor; protein purified to >98%
Description: as §1

cynomolgus Bb = target: T2, cynomolgus Bb (cynomolgus, UniProt A0A2K5TZY3 260-763); assay: method not given
T2 construct: Named only in the sentence that gives the KD; also called cynomolgus target

[13] = target: T3, human complement C1s enzyme (activated C1s) (human, UniProt P09871 16-437; P09871 438-688); assay: cell-based or functional assay
T3 sequence 1: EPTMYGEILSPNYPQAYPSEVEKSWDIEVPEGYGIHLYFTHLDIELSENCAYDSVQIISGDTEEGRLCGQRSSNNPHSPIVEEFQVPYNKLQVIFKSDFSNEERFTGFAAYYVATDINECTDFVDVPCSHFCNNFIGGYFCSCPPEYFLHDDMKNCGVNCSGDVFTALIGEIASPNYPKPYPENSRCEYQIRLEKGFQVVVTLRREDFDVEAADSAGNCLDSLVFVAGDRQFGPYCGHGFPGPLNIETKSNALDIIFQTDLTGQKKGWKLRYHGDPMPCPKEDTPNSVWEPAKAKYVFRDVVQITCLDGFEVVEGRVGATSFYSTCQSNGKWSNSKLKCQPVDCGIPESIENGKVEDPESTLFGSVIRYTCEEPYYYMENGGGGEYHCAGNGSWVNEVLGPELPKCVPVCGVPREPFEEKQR
T3 sequence 2: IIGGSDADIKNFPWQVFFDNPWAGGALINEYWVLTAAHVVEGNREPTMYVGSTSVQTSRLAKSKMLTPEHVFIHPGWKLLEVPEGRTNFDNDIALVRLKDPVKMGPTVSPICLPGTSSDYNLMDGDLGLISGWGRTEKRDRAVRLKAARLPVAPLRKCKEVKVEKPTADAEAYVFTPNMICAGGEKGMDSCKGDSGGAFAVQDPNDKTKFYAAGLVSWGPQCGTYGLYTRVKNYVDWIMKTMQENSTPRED

[14] = target: T3, human complement C1s enzyme (activated …); assay: cell-based or functional assay; remark: listed apart in the source
[15] = target: T3, human complement C1s enzyme (activated …); assay: cell-based or functional assay; remark: listed apart in the source
[16] = target: T3, human complement C1s enzyme (activated …); assay: BLI (Octet), biotinylated target on streptavidin sensor; mixture of the two scFabs from construct #9
Description: as §1

[17] = target: T3, human complement C1s enzyme (activated …); assay: cell-based or functional assay; remark: listed apart in the source
[18] = target: T3, human complement C1s enzyme (activated …); assay: cell-based or functional assay; remark: listed apart in the source
[19] = target: T3, human complement C1s enzyme (activated …); assay: BLI (Octet), biotinylated target on streptavidin sensor
[20] = target: T3, human complement C1s enzyme (activated …); assay: BLI (Octet), biotinylated target on streptavidin sensor; mixture of the two scFabs from construct #9; mixture of the two scFabs from construct #9
[21] = target: T3, human complement C1s enzyme (activated …); assay: BLI (Octet), biotinylated target on streptavidin sensor; partially purified mixture of the two scFabs from construct #9
Description: as §1, §2

[22] = target: cynomolgus C1s (cynomolgus); assay: method not given
[23] = target: T3, human complement C1s enzyme (activated …); assay: SPR, purified protein
[24] = target: T3, human complement C1s enzyme (activated …); assay: BLI (Octet), biotinylated target on streptavidin sensor; protein purified to >98%
Description: as §1

[25] = target: T3, human complement C1s enzyme (activated …); assay: method not given
[26] = target: T3, human complement C1s enzyme (activated …); assay: cell-based or functional assay; remark: listed apart in the source
[27] = target: T3, human complement C1s enzyme (activated …); assay: BLI (Octet), biotinylated target on streptavidin sensor; remark: listed apart in the source

T1 sequence (P00751 260-764): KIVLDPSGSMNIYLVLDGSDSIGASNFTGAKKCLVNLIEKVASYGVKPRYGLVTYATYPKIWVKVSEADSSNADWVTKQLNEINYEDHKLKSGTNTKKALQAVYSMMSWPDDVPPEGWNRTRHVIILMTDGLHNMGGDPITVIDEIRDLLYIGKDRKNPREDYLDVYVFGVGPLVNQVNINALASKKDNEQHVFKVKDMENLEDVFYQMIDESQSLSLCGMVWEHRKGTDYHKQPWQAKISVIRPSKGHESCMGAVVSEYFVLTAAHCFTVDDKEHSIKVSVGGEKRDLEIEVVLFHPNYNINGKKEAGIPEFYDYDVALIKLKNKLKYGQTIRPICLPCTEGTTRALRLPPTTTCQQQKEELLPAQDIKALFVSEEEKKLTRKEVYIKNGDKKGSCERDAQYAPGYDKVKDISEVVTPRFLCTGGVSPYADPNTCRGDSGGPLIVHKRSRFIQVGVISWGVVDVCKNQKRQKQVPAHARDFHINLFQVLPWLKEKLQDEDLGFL
T2 sequence (A0A2K5TZY3 entry or part of it): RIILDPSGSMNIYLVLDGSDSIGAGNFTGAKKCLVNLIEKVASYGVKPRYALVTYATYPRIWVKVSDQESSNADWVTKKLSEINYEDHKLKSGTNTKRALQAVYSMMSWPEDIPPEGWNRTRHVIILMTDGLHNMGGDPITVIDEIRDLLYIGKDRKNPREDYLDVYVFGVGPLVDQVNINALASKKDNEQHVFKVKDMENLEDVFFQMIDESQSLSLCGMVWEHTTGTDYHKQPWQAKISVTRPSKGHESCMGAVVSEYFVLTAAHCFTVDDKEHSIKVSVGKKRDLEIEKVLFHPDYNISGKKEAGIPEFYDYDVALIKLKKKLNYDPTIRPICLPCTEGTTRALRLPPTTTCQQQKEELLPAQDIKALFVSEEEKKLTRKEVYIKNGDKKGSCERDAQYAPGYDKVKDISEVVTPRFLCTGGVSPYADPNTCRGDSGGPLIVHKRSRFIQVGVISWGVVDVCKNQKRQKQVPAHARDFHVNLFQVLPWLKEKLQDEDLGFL

IC50 AP (Wieslab) [1]: 144 nM | Wieslab alternative pathway IC50 [2]: 144 nM | AP IC50 (Wieslab) [3]: 99 nM | Kd [4]: 0.73 nM | koff [4]: 0.00051 s⁻¹ | kon [4]: 700000 M⁻¹ s⁻¹ | Kd [5]: 0.7 nM | Kd [6]: 2.7 nM | IC50 (nM), complement activation with CP and AP activated simultaneously in vitro [7]: 463 nM
B1: parental anti-Bb Fab (Fab, V domains shown)
VH: EVQLVESGGGLVKPGGSLRLSCAASGFTFSNYAMSWVRQAPGKRLEWVATISNRGSYTYYPDSVKGRFTISRDNAKNSLYLQMNSLRAEDTALYYCARERPMDYWGQGTLVTVSS
VL: DIQMTQSPSTLSASVGDRVTITCKASQDVGTAVAWYQQKPGKAPKLLIYWASTRHTGVPDRFSGSGSGTDFTLTISSLQAEDFAVYFCHQHSSNPLTFGQGTKLEIKR
notes: also called Purified anti-Bb Fab

IC50 AP (Wieslab) [1]: 193 nM | IC50 AP (Wieslab), mixture of scFabs from construct #9 [1]: 224 nM | IC50 AP Wieslab EIA [8]: 193 nM | Wieslab AP IC50 of #9-derived fragments, fold of purified anti-Bb Fab [9]: ~3 fold | Kd [10]: 0.8 nM | koff [10]: 0.0002 s⁻¹ | kon [10]: 260000 M⁻¹ s⁻¹ | Wieslab alternative pathway IC50 [2]: 190 nM | Kd [11]: 0.9 nM | AP IC50 (Wieslab), mixture of scFabs from construct #9 [3]: 224 nM | Kd [4]: 0.7 nM | koff [4]: 0.00049 s⁻¹ | kon [4]: 670000 M⁻¹ s⁻¹ | Kd [6]: 3.7 nM | Kd [12]: 0.7 nM | Kd (cynomolgus Bb): 14.8 nM | IC50 (nM), complement activation with CP and AP activated simultaneously in vitro [7]: 633 nM
B2: anti-Bb scFab (construct #4) (Fab)
chain: DIQMTQSPSTLSASVGDRVTITCKASQDVGTAVAWYQQKPGKAPKLLIYWASTRHTGVPDRFSGSGSGTDFTLTISSLQAEDFAVYFCHQHSSNPLTFGQGTKLEIKRTVAAPSVFIFPPSDEQLKSGTASVVCLLNNFYPREAKVQWKVDNALQSGNSQESVTEQDSKDSTYSLSSTLTLSKADYEKHKVYACEVTHQGLSSPVTKSFNRGECGGGGSGGGGSGGGGSGGGGSGGGGSGGGGSGGGGSEVQLVESGGGLVKPGGSLRLSCAASGFTFSNYAMSWVRQAPGKRLEWVATISNRGSYTYYPDSVKGRFTISRDNAKNSLYLQMNSLRAEDTALYYCARERPMDYWGQGTLVTVSSASTKGPSVFPLAPCSRSTSESTAALGCLVKDYFPEPVTVSWNSGALTSGVHTFPAVLQSSGLYSLSSVVTVPSSSLGTKTYTCNVDHKPSNTKVDKRV
notes: Single-chain Fab: LC-(G4S)7-HC (VH-CH1); there it stood in a mixture with the anti-C1s scFab; also called αBb scFab; Purified anti-Bb scFab

IC50 CP (Wieslab) [13]: 7.2 nM | IC50 CP (Wieslab), mixture of scFabs from construct #9 [13]: 157 nM | IC50 CP Wieslab EIA [14]: 7.2 nM | Wieslab CP IC50 of #9-derived fragments, fold of purified anti-C1s Fab [15]: ~25 fold | koff [16]: 0.00028 s⁻¹ | kon [16]: 150000 M⁻¹ s⁻¹ | Wieslab classical pathway IC50 [17]: 6.7 nM | CP IC50 (Wieslab), mixture of scFabs from construct #9 [18]: 157 nM | Kd [19]: 0.3 nM | Kd [20]: 1.9 nM | Kd [21]: 1.8 nM | Kd [22]: 0.016 nM | Kd [23]: 0.3 nM | Kd [24]: 0.3 nM | Kd [25]: 0.34 nM | IC50 (nM), complement activation with CP and AP activated simultaneously in vitro [26]: 97.3 nM
B3: anti-C1s scFab (construct #2) (Fab)
chain: DIVLTQSPDSLAVSLGERATISCKASQSVDYDGDSYMNWYQQKPGQPPKILIYDASNLESGIPARFSGSGSGTDFTLTISSLEPEDFAIYYCQQSNEDPWTFGGGTKVEIKRTVAAPSVFIFPPSDEQLKSGTASVVCLLNNFYPREAKVQWKVDNALQSGNSQESVTEQDSKDSTYSLSSTLTLSKADYEKHKVYACEVTHQGLSSPVTKSFNRGECGGGGSGGGGSGGGGSGGGGSGGGGSGGGGSGGGGSQVQLVQSGAEVKKPGASVKLSCTASGFNIKDDYIHWVKQAPGQGLEWIGRIDPADGHTKYAPKFQVKVTITADTSTSTAYLELSSLRSEDTAVYYCARYGYGREVFDYWGQGTTVTVSSASTKGPSVFPLAPCSRSTSESTAALGCLVKDYFPEPVTVSWNSGALTSGVHTFPAVLQSSGLYSLSSVVTVPSSSLGTKTYTCNVDHKPSNTKVDKRV
notes: Single-chain Fab: LC-(G4S)7-HC (VH-CH1); there it stood in a mixture with the anti-Bb scFab; also called αC1s scFab; Purified anti-C1s scFab

IC50 CP (Wieslab) [13]: 5.4 nM | Wieslab classical pathway IC50 [17]: 5.5 nM | CP IC50 (Wieslab) [18]: 6 nM | Kd [19]: 0.3 nM | Kd [27]: 0.3 nM | Kd [23]: 0.3 nM | IC50 (nM), complement activation with CP and AP activated simultaneously in vitro [26]: 68.2 nM
B4: parental anti-C1s Fab (Fab, V domains shown)
VH: QVQLVQSGAEVKKPGASVKLSCTASGFNIKDDYIHWVKQAPGQGLEWIGRIDPADGHTKYAPKFQVKVTITADTSTSTAYLELSSLRSEDTAVYYCARYGYGREVFDYWGQGTTVTVSS
VL: DIVLTQSPDSLAVSLGERATISCKASQSVDYDGDSYMNWYQQKPGQPPKILIYDASNLESGIPARFSGSGSGTDFTLTISSLEPEDFAIYYCQQSNEDPWTFGGGTKVEIKR
notes: also called Purified anti-C1s Fab
